Our source for the Kd values is article PMC4276739 (2015).

The target of assay [1] is ActRII ECD (Homo sapiens) (UniProt P27037). As to conditions: cited from earlier work.
Assay [2] concerns the target T1, ALK3 (BMPRIa) ECD (Homo sapiens, UniProt P36894).
T1 chain: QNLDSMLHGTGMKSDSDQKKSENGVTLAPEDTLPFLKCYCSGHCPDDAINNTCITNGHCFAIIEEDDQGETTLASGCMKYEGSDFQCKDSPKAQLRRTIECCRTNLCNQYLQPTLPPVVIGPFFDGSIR
The assay can be described thus: SPR. (SPR reads the build-up and loss of mass on a sensor chip optically.)

Chain of ActRII ECD (Homo sapiens) (P27037 20-135): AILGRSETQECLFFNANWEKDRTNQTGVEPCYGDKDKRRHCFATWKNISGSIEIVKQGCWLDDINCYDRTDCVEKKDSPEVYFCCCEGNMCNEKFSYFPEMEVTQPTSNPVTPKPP

For Activin A (from UniProt P08476), the Kd (commonly a measure of binding affinity in units of concentration) in assay [1] is 0.2 nM.

B1: BMP2 (protein)
chain: QAKHKQRKRLKSSCKRHPLYVDFSDVGWNDWIVAPPGYHAFYCHGECPFPLADHLNSTNHAIVQTLVNSVNSKIPKACCVPTELSAISMLYLDENEKVVLKNYQDMVVEGCGCR
In assay [2], B1 yielded a Kd of 5 nM.
